Results taken from US7537764.

Tests used:
[1] = biological target: WNV-like particles with E protein mutation A365V (West Nile virus strain 382-99) (UniProt Q9Q6P4)
[2] = biological target: West Nile virus strain USA99b (strain 385-99), whole virus (West Nile virus strain 385-99 (USA99b)); assay: ELISA on irradiated WNV; antibody diluted 1:5
[3] = biological target: West Nile virus strain USA99b (strain 385-99), whole virus (West Nile virus strain 385-99 (USA99b)); assay: ELISA on irradiated WNV; antibody diluted 1:25
[4] = biological target: West Nile virus strain USA99b (strain 385-99), whole virus (West Nile virus strain 385-99 (USA99b)); assay: ELISA on irradiated WNV; antibody diluted 1:125
[5] = biological target: West Nile virus strain USA99b (strain 385-99), whole virus (West Nile virus strain 385-99 (USA99b)); assay: SPR (BIAcore3000), WNV captured via immobilized CR4283, IgG injected, bivalent analyte model, average of duplicates
[6] = biological target: West Nile virus strain USA99b (strain 385-99), whole virus (West Nile virus strain 385-99 (USA99b)); assay: ELISA on irradiated WNV; antibody at 20.000 µg/ml

WNV-E protein specific murine antibody 7H2
fold binding against wild-type VLP [1]: 2 fold
OD 492 nm [2]: 2.09 OD
OD 492 nm [3]: 2.12 OD
OD 492 nm [4]: 2.13 OD
Kd [5]: 0.32 nM

anti-rabies virus antibody (negative control)
OD 492 nm [2]: 0.062 OD
OD 492 nm [3]: 0.056 OD
OD 492 nm [4]: 0.046 OD
OD 492 nm [6]: 0.051 OD
